Measurements as given in article PMC10197057 (Microbial Cell Factories, 2023).

Molecular target: T1, lysozyme from chicken egg white (Gallus gallus, UniProt P00698)
T1 construct: lysozyme from chicken egg white (Sigma-Aldrich L4919); source: bought: Sigma-Aldrich (L4919)
Experiment: BLI; BLItz system; nanobody (100 mg/L) loaded via His-tag on Anti-Penta-HIS (HIS1K) sensor; dilution series of antigen in solution; association 180 s, dissociation 300 s; sensor hydrated in PBS-T (0.1% Tween-20); reference without antigen; global fitting
Conditions: both partners purified

T1 sequence (P00698 19-147): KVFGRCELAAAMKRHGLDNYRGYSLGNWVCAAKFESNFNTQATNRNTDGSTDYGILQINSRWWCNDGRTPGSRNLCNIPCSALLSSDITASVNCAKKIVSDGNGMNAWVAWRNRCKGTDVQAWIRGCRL

B1: monovalent antilysozyme nanobody 1ZVH (VHH)
VHH: DVQLVESGGGSVQAGGSLRLSCAASGYIASINYLGWFRQAPGKEREGVAAVSPAGGTPYYADSVKGRFTVSLDNAENTVYLQMNSLKPEDTALYYCAAARQGWYIPLNSYGYNYWGQGTQVTVSS
notes: anti-lysozyme camelid VHH; also called anti-lysozyme VHH; not shown: CBH2 secretory signal, CBD-carrier polypeptide and KEX2 linker (RDKR), N-terminal, cleaved; His6, C-terminal, kept
Binder B1 has a Kd of 1.5 nM.
